11 molecules from US20180155451A1 (published 2018) can be followed below.

The assay addresses T1, FcγRIIIa extracellular domain with C-terminal His tag (human, UniProt P08637 17-208).
T1 construct: extracellular domain; also called FcgRIIIa; 3a
As to the kind of experiment: SPR, relative to GpH7-A5/GpH7-B3/GpL16-k0.

T1 sequence (P08637 17-208): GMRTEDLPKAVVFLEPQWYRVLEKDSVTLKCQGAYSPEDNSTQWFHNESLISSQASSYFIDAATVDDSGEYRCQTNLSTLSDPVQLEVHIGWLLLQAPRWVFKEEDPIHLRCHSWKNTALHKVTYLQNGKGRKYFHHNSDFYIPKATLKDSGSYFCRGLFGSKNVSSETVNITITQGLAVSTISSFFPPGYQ

B1: GpH7-A5/GpH7-B3 variant K334_04F/GpL16-k0 (antibody, human IgG1, kappa)
heavy 1: not shown
heavy 2: not shown
light: DIVMTQSPLSLPVTPGEPASISCQASESLVHSNRNTYLHWYLQKPGQSPQLLIYKVSNRFSGVPDRFSGSGSGTDFTLKISRVEAEDVGVYYCSQNTHVPPTFGQGTKVEIERTVAAPSVFIFPPSDEQLKSGTASVVCLLNNFYPREAKVQWKVDNALQSGNSQESVTEQDSKDSTYSLSSTLTLSKADYEKHKVYACEVTHQGLSSPVTKSFNRGEC
notes: heterodimerized IgG1, mutation in one H chain only; also called He Ab
As for B1, the He/Con_3a is 148 % of control (=100).

B2: GpH7-A5/GpH7-B3 variant K326_09D/GpL16-k0 (antibody, human IgG1, kappa)
heavy 1: not shown
heavy 2: not shown
light: DIVMTQSPLSLPVTPGEPASISCQASESLVHSNRNTYLHWYLQKPGQSPQLLIYKVSNRFSGVPDRFSGSGSGTDFTLKISRVEAEDVGVYYCSQNTHVPPTFGQGTKVEIERTVAAPSVFIFPPSDEQLKSGTASVVCLLNNFYPREAKVQWKVDNALQSGNSQESVTEQDSKDSTYSLSSTLTLSKADYEKHKVYACEVTHQGLSSPVTKSFNRGEC
notes: as for B1
With B2, the He/Con_3a is 134 % of control (=100).

B3: GpH7-A5/GpH7-B3 variant K334_10E/GpL16-k0 (antibody, human IgG1, kappa)
heavy 1: not shown
heavy 2: not shown
light: DIVMTQSPLSLPVTPGEPASISCQASESLVHSNRNTYLHWYLQKPGQSPQLLIYKVSNRFSGVPDRFSGSGSGTDFTLKISRVEAEDVGVYYCSQNTHVPPTFGQGTKVEIERTVAAPSVFIFPPSDEQLKSGTASVVCLLNNFYPREAKVQWKVDNALQSGNSQESVTEQDSKDSTYSLSSTLTLSKADYEKHKVYACEVTHQGLSSPVTKSFNRGEC
notes: as for B1
For the molecule B3, the He/Con_3a was 181 % of control (=100).

B4: GpH7-A5/GpH7-B3 variant K334_05P/GpL16-k0 (antibody, human IgG1, kappa)
heavy 1: not shown
heavy 2: not shown
light: DIVMTQSPLSLPVTPGEPASISCQASESLVHSNRNTYLHWYLQKPGQSPQLLIYKVSNRFSGVPDRFSGSGSGTDFTLKISRVEAEDVGVYYCSQNTHVPPTFGQGTKVEIERTVAAPSVFIFPPSDEQLKSGTASVVCLLNNFYPREAKVQWKVDNALQSGNSQESVTEQDSKDSTYSLSSTLTLSKADYEKHKVYACEVTHQGLSSPVTKSFNRGEC
notes: as for B1
Turning to B4, the He/Con_3a is 134 % of control (=100).

B5: GpH7-A5/GpH7-B3 variant K326_10E/GpL16-k0 (antibody, human IgG1, kappa)
heavy 1: not shown
heavy 2: not shown
light: DIVMTQSPLSLPVTPGEPASISCQASESLVHSNRNTYLHWYLQKPGQSPQLLIYKVSNRFSGVPDRFSGSGSGTDFTLKISRVEAEDVGVYYCSQNTHVPPTFGQGTKVEIERTVAAPSVFIFPPSDEQLKSGTASVVCLLNNFYPREAKVQWKVDNALQSGNSQESVTEQDSKDSTYSLSSTLTLSKADYEKHKVYACEVTHQGLSSPVTKSFNRGEC
notes: as for B1
With B5, the He/Con_3a is 124 % of control (=100).

B6: GpH7-A5/GpH7-B3 variant K326_15Y/GpL16-k0 (antibody, human IgG1, kappa)
heavy 1: not shown
heavy 2: not shown
light: DIVMTQSPLSLPVTPGEPASISCQASESLVHSNRNTYLHWYLQKPGQSPQLLIYKVSNRFSGVPDRFSGSGSGTDFTLKISRVEAEDVGVYYCSQNTHVPPTFGQGTKVEIERTVAAPSVFIFPPSDEQLKSGTASVVCLLNNFYPREAKVQWKVDNALQSGNSQESVTEQDSKDSTYSLSSTLTLSKADYEKHKVYACEVTHQGLSSPVTKSFNRGEC
notes: as for B1
With B6, the He/Con_3a was 112 % of control (=100).

B7: GpH7-A5/GpH7-B3 variant Q295_02A/GpL16-k0 (antibody, human IgG1, kappa)
heavy 1: not shown
heavy 2: not shown
light: DIVMTQSPLSLPVTPGEPASISCQASESLVHSNRNTYLHWYLQKPGQSPQLLIYKVSNRFSGVPDRFSGSGSGTDFTLKISRVEAEDVGVYYCSQNTHVPPTFGQGTKVEIERTVAAPSVFIFPPSDEQLKSGTASVVCLLNNFYPREAKVQWKVDNALQSGNSQESVTEQDSKDSTYSLSSTLTLSKADYEKHKVYACEVTHQGLSSPVTKSFNRGEC
notes: as for B1
B7: the He/Con_3a was 106 % of control (=100).

B8: GpH7-A5/GpH7-B3 variant K334_14T/GpL16-k0 (antibody, human IgG1, kappa)
heavy 1: not shown
heavy 2: not shown
light: DIVMTQSPLSLPVTPGEPASISCQASESLVHSNRNTYLHWYLQKPGQSPQLLIYKVSNRFSGVPDRFSGSGSGTDFTLKISRVEAEDVGVYYCSQNTHVPPTFGQGTKVEIERTVAAPSVFIFPPSDEQLKSGTASVVCLLNNFYPREAKVQWKVDNALQSGNSQESVTEQDSKDSTYSLSSTLTLSKADYEKHKVYACEVTHQGLSSPVTKSFNRGEC
notes: as for B1
Turning to B8, the He/Con_3a was 141 % of control (=100).

B9: GpH7-A5/GpH7-B3 variant K334_19Q/GpL16-k0 (antibody, human IgG1, kappa)
heavy 1: not shown
heavy 2: not shown
light: DIVMTQSPLSLPVTPGEPASISCQASESLVHSNRNTYLHWYLQKPGQSPQLLIYKVSNRFSGVPDRFSGSGSGTDFTLKISRVEAEDVGVYYCSQNTHVPPTFGQGTKVEIERTVAAPSVFIFPPSDEQLKSGTASVVCLLNNFYPREAKVQWKVDNALQSGNSQESVTEQDSKDSTYSLSSTLTLSKADYEKHKVYACEVTHQGLSSPVTKSFNRGEC
notes: as for B1
Regarding B9, the He/Con_3a is 136 % of control (=100).

B10: GpH7-A5/GpH7-B3 variant K334_18N/GpL16-k0 (antibody, human IgG1, kappa)
heavy 1: not shown
heavy 2: not shown
light: DIVMTQSPLSLPVTPGEPASISCQASESLVHSNRNTYLHWYLQKPGQSPQLLIYKVSNRFSGVPDRFSGSGSGTDFTLKISRVEAEDVGVYYCSQNTHVPPTFGQGTKVEIERTVAAPSVFIFPPSDEQLKSGTASVVCLLNNFYPREAKVQWKVDNALQSGNSQESVTEQDSKDSTYSLSSTLTLSKADYEKHKVYACEVTHQGLSSPVTKSFNRGEC
notes: as for B1
Turning to B10, the He/Con_3a is 136 % of control (=100).

B11: GpH7-A5/GpH7-B3 variant K334_08L/GpL16-k0 (antibody, human IgG1, kappa)
heavy 1: not shown
heavy 2: not shown
light: DIVMTQSPLSLPVTPGEPASISCQASESLVHSNRNTYLHWYLQKPGQSPQLLIYKVSNRFSGVPDRFSGSGSGTDFTLKISRVEAEDVGVYYCSQNTHVPPTFGQGTKVEIERTVAAPSVFIFPPSDEQLKSGTASVVCLLNNFYPREAKVQWKVDNALQSGNSQESVTEQDSKDSTYSLSSTLTLSKADYEKHKVYACEVTHQGLSSPVTKSFNRGEC
notes: as for B1
In the case of B11, the He/Con_3a is 143 % of control (=100).
